Test results taken from US20240279345A1, “ALPHA 5 BETA 1 INTEGRIN BINDING AGENTS AND USES THEREOF” (PASITHEA THERAPEUTICS CORP., priority 2021, published 2024).
Changes are numbered by the printed parent chain. In names and notes the source's numbering stands. Values belong to the molecule of their own block, whether it stands above or below them.

Key:
[1] = target: α5β1 integrin on U87MG cells (human, UniProt P08648 42-1049; P05556 21-798); test: cell-based or functional assay
U87MG cell line = test: Plate-based cell adhesion assay of U87MG cells to FN; details: antibody 3 to 0.01 μg/mL
Experimental: Cell surface α5β1 integrin receptors interact with FN to promote cellular adhesion. To test whether the human IgG4 chimeric anti-α5β1 antibodies inhibit adhesion, a plate-based cell adhesion assay was developed for use with the U87MG cell line (HTB-14™, ATCC, Manassas, VA) which is derived from a Glioblastoma tumor and is known to express α5β1 integrin. U87MG cells were grown to 80% confluence in EMEM media (ATCC, Manassas, VA, cat. no. 30-2003) supplemented with 10% Fetal Bovine Serum (FBS; ATCC, Manassas, VA, cat. no. 30-2021) in a 5% C02, 37° C. incubator. Cells were dissociated from flasks with 0.05% Trypsin, 0.02% EDTA (Lifeline Cell Technology, Frederick, MD, cat. no. CM0017), washed once with Dulbecco's 1×PBS (DPBS) Modified which contains calcium and magnesium (HyClone, Logan, UT, cat. no. SH30028-02) and resuspended in EMEM media without supplementation at a cellular concentration of 2,000,000 cells per mL. Cells were rested in the incubator for 30 minutes before mixing with a six point 1:3 dilution series of the antibodies with final concentrations ranging from 3 to 0.01 μg/mL in a 96-well polypropylene round-bottom plate. 100,000 rested cells were pre-mixed with each dilution of antibody to a final volume of 100 μL and then transferred to a Human FN coated 96-well plate (R&D Systems, Minneapolis, MN, cat. no. CWP001). The cell-antibody mixtures were incubated for 1 hour at 37° C., 5% C02. Non-adhered cells were removed from the wells by inversion of the plate on an absorbent pad, then washed 2× with 200 uL each well with 1×DPBS without Calcium and Magnesium (EMD Millipore Corp, Billerica, MA, cat. no. TMS-012-A). 100 μL 1× DPBS containing Hoechst 33342 dye (Thermo Fisher Scientific, Waltham, MA, cat. no. 62249) at the recommended dilution (1:2000) was added to each well to fluorescently stain nuclei to facilitate cell counting. Cells that remained adhered to the wells were counted using image analysis software provided by the ImageXpress Pico Automated Cell Imaging System (Molecular Devices, San Jose, CA) which is based on counting fluorescently stained nuclei, in this case using a DAPI filter to detect the Hoechst nuclear staining. Non-linear regression analysis was used to fit curves (4-parameter) to the data using GraphPad Prism version 9.0.2 (GraphPad Software, LLC, San Diego, CA).

[2] = target: T1, recombinant human α5β1 integrin (rh-α5β1) (Homo sapiens, UniProt P05556+P08648); test: Plate-based ELISA reactivity to rh-α5β1; format: binding; details: selected for further characterization among α5 specific hybridomas (28 selected)
T1 construct: purchased R&D Systems 3230-A5
Experimental: (§1) The 249 positive hybridoma supernatants selected as described in Example 1 were screened for reactivity to rh-α5β1 in a plate-based ELISA. Immulon4 HBX ELISA 96-well plates (Thermo Fisher Scientific, Waltham, MA, cat. no. 3855) were coated with rh-α5β1 (R&D Systems, Minneapolis, MN 55413, cat. no. 3230-A5), at 1 μg/mL in PBS supplemented with 0.5 mM MgCl2, MnCl2 and CaCl2 and incubated overnight at 4° C. Plates were washed 3 times with Wash Buffer (1× Tris Buffered Saline containing 0.05% Tween20), blocked with 2% BSA in 1×TBS (made from 10× Thermo Scientific Blocker BSA (10×) in TBS; Thermo Fisher Scientific, Waltham, MA, cat. no. 37520) for 2 hours at room temperature (RT) then incubated with hybridoma supernatants diluted 1:10 with Standard Diluent (2% BSA, 1×TBS, 0.05% Tween20). Following a 1 hour incubation at RT, wells were washed 3 times, incubated with biotinylated goat anti-mouse secondary antibody at 1:8000 dilution (Invitrogen, Carlsbad, CA, cat. no. 62-6540) for 1 hour, washed 3 times, then incubated for 30 minutes with poly-HRP Streptavidin (Thermo Fisher Scientific, Waltham, MA, cat. no. N200), washed 4 times, incubated with TMB (Thermo Fisher Scientific, Waltham, MA, cat. no. N301) for 5-10 minutes, followed by addition of ELISA Stop Solution (Invitrogen, Carlsbad, CA, cat. no. SS04). Absorbance 450 nm was measured.

[3] = target: T2, recombinant mouse α5β1 (rm-α5β1) (Mus musculus, UniProt P09055+P11688); test: Plate-based ELISA cross-reactivity to rm-α5β1; format: binding; details: hybridoma supernatant diluted 1:10; plate coated with rm-α5β1
T2 construct: purchased R&D Systems 7728-A5
Experimental: as §1
In addition, hybridomas were tested for cross-reactivity to recombinant mouse α5β1 (rm-α5β1; R&D Systems, Minneapolis, MN 55413; cat. no. 7728-A5) using the same protocol as above except that the plates were coated with rm-α5β1.

rh-α4β1 = target: T3, rh-α4β1 (Homo sapiens, UniProt P05556+P13612); test: Plate-based ELISA reactivity to rh-α4β1 (α5 subunit specificity); format: binding; details: hybridoma supernatant diluted 1:10; plate coated with rh-α4β1
T3 construct: purchased R&D Systems 3230-A5 & 5668-A4
Experimental: as §1
In parallel the 249 hybridomas were screened for specificity to the human α5 subunit by testing for reactivity to rh-α4β1 (R&D Systems, Minneapolis, MN 55413; cat. no. 3230-A5 & 5668-A4). Any hybridoma that reacted to both rh-α4β1 and rh-α5β1 is likely to be β1 subunit specific and not considered α5 specific. Using the protocol described above, 29 hybridoma supernatants reacted strongly (>1.0 Absorbance 450 nm) with rh-α4β1 and were not considered to be α5 specific.

rh-α5β1 = rh-α5β1 (Homo sapiens, UniProt P05556+P08648); test: Competition binding studies by Biolayer Interferometry (epitope groups); details: for Response (nm) / % Response: secondary mAb pre-mixed with 20 nM rh-α5β1; for % Response: relative to antigen alone
Experimental: Epitope analysis via competition binding studies was performed using Biolayer Interferometry (BLI) on the 6 antibodies selected as described in Example 5. The anti-α5β1 FN blocking antibodies A2-7A05, C-14D12 and A-15B08 were immobilized on sensors and incubated with each of the other antibodies that had been preincubated with rh-α5β1, to determine whether this antibody-antigen association prevents or allows binding to the antibody on the sensor. The magnitude of observed binding (response) was compared to binding of antigen alone under the same conditions. If the overall response was greater than 120% of antigen binding alone, then the antibodies can pair with each other. If response was less than 80% of response of antigen binding alone, then the antibodies block each other. The protocol was as follows: preincubate the panel of antibodies with antigen (1 hr). Equilibrate the sensor (30 seconds (s))-->Load lead Ab on the sensor (700s)--->Quench (480s)--->Read baseline (480s)-->measure preincubated Ab+Ag association with loaded sensor (600s).

Sequence of rh-α5β1 (P08648 42-894 limits assumed): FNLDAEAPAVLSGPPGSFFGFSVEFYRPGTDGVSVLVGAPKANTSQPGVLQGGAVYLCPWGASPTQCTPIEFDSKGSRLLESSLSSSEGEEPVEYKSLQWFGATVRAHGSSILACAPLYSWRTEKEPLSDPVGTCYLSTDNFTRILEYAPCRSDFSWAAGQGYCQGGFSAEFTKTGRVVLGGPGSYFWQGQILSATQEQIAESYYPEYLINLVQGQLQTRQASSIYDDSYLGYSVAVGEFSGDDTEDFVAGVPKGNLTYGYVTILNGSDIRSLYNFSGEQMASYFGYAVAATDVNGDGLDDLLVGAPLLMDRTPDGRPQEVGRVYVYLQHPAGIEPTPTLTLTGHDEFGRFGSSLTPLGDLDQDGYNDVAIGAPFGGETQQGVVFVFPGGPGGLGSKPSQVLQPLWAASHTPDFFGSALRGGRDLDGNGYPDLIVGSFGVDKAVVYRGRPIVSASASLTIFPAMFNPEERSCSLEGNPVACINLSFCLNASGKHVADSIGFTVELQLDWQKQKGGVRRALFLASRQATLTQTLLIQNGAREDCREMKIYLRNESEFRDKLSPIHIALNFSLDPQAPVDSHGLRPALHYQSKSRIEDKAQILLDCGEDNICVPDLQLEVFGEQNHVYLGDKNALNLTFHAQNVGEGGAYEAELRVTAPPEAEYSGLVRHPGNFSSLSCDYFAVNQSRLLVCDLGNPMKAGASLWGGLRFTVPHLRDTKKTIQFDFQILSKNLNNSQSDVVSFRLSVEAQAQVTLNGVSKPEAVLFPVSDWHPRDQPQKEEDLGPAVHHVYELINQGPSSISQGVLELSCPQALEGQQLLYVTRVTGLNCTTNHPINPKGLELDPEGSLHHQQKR
Sequence of rh-α5β1 (P08648 895-995 limits assumed): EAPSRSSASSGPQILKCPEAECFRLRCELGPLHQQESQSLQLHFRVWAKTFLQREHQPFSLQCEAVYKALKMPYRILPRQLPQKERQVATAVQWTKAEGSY
Sequence of rh-α5β1 (P05556 21-728 limits assumed): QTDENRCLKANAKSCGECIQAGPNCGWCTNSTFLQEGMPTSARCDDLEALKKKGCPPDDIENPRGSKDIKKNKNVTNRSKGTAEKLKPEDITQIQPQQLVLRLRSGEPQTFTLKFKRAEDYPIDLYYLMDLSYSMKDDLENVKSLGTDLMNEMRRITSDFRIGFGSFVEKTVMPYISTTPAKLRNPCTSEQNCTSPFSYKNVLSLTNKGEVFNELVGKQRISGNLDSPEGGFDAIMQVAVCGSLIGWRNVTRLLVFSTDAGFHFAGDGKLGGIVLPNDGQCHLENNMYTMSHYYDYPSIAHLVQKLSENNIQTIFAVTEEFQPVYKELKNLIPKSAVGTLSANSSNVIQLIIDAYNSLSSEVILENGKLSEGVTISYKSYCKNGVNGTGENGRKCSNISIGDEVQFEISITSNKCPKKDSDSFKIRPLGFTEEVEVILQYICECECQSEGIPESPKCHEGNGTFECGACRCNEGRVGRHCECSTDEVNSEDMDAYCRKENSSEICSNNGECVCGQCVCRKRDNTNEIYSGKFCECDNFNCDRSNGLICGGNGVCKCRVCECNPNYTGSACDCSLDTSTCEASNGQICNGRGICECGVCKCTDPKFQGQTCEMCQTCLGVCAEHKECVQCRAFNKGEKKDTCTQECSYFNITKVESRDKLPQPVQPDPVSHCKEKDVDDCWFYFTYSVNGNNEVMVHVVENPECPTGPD
Sequence of α5β1 integrin on U87MG cells (P08648 42-1049 limits assumed, chain 1 of 2): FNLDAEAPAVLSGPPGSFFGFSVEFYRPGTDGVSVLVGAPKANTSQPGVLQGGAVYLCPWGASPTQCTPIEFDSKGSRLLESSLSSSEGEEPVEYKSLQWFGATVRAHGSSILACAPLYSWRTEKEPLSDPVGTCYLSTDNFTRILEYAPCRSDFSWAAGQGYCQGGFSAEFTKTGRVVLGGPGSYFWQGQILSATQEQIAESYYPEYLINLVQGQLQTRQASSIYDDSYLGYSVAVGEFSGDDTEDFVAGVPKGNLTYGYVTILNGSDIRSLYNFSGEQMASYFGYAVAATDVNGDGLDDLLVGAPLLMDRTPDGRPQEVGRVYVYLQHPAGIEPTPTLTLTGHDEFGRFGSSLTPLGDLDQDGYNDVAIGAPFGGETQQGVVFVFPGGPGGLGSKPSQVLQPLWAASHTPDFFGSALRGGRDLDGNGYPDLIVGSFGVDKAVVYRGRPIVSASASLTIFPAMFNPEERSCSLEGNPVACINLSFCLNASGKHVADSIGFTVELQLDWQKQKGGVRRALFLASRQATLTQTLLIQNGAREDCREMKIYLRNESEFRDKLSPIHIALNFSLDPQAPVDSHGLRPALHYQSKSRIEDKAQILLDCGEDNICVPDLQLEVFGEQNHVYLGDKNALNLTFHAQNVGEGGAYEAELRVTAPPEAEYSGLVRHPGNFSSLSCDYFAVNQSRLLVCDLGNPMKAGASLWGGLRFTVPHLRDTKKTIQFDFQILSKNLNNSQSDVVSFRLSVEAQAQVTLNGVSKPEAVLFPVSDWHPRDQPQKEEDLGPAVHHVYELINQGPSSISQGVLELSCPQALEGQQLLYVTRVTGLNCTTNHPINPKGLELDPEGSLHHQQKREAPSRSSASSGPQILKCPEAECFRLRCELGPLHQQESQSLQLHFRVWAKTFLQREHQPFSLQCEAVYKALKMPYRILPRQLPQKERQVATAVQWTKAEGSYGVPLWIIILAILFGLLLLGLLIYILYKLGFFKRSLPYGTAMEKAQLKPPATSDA
Sequence of α5β1 integrin on U87MG cells (P05556 21-798 limits assumed, chain 2 of 2): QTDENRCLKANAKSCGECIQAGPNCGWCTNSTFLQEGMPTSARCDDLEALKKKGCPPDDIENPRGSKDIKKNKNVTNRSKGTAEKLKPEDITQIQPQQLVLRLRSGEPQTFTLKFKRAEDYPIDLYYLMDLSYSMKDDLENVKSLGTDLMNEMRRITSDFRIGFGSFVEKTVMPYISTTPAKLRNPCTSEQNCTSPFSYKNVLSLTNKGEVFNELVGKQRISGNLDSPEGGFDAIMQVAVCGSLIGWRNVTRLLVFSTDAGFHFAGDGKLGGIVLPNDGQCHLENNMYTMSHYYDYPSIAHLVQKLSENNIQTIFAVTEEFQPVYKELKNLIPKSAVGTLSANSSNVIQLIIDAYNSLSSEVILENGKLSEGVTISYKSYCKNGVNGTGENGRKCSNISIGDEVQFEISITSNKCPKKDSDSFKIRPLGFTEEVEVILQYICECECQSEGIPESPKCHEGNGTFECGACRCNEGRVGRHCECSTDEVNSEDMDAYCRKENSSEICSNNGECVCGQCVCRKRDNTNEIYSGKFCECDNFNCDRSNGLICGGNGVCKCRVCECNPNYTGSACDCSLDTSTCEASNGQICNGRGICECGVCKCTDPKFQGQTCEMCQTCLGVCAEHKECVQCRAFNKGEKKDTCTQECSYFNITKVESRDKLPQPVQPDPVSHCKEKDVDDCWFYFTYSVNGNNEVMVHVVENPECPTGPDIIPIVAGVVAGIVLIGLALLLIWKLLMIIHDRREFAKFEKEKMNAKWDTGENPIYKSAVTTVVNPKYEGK
T3 sequence (P13612 34-977 limits assumed): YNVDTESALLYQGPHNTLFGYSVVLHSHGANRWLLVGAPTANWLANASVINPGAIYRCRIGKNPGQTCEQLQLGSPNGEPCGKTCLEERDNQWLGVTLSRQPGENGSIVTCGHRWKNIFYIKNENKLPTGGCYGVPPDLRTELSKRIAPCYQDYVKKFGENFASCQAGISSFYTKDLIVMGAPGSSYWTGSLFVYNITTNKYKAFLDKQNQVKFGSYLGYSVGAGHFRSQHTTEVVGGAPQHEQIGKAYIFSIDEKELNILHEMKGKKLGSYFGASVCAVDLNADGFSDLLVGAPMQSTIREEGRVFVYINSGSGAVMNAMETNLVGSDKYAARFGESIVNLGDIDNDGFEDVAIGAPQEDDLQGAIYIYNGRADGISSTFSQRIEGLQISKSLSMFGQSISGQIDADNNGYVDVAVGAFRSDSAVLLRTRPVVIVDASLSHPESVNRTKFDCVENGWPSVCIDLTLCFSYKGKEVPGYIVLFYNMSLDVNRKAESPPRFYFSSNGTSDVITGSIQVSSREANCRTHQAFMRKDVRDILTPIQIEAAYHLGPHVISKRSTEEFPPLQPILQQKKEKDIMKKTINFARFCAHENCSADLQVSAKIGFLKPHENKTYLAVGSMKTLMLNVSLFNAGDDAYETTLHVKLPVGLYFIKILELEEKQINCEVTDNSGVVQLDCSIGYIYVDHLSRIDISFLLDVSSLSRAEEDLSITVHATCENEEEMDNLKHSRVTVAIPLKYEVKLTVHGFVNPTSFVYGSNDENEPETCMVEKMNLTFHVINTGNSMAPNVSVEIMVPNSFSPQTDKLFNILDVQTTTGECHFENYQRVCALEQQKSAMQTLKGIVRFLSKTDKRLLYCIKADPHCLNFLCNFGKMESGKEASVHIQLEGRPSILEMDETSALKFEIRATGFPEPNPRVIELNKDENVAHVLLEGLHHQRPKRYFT
T3 sequence (P05556 21-728 limits assumed): as the sequence (P05556 21-728 limits assumed) above
T1 sequence (P08648 42-894 limits assumed): as the sequence (P08648 42-894 limits assumed) above
T1 sequence (P08648 895-995 limits assumed): as the sequence (P08648 895-995 limits assumed) above
T1 sequence (P05556 21-728 limits assumed): as the sequence (P05556 21-728 limits assumed) above

B3: C-14D12 IgG4 Chimera (antibody, V domains shown)
VH: QVQLKESGPDLVAPSQSLSITCTVSGFSLTDYGVHWVRQPPGKGLEWLVVIWSDGSTTYNSALKSRLSITKDTSKRQVFLKMNSLQTDDTAMYYCARHAPSFIRYGSRYDALDYWGQGTSVTVSS
VL: QIVLTQSPAIMSASLGERVTLTCTASSSVTSSFLHWYQQKPGSSPKLWIYSTSNLASGVPARFSGSGSGTSYSLTISSMEAEDAATYYCHQYHRSPPTFGGGTKLEIK
IC50 (U87MG cell line): 0.14 µg/mL

B4: A2-3B06: anti-α5β1 antibody, VH SEQ ID NO:42, VL SEQ ID NO:43 (antibody, V domains shown)
VH: QVQLKESGPGLVAPSQSLSITCTISGFSLTTYGVHWVRQPPGKGLEWLVVIWSDGSTTYNSALKSRLNITKDNSKSQVFLKMNSLQTDDTAMYYCVRHGGLLRRDAMDYWGQGTSVTVSS
VL: B3 VL with L21M, T30S, S32N, F33S, L34F, I49L, H93L
modifications: A2-3B06 VH Sequence; A2-3B06 VL Sequence
Selected Human α5 Specific [2]: Yes
Absorbance 450 nm Mouse α5β1 [3]: 0.049
Absorbance 450 nm Human α4β1 (rh-α4β1): 0.0558
binding of rh-α5β1 complexed with antibody to A2-7A05 on the sensor (rh-α5β1; antibody preincubated with rh-α5β1, A2-7A05 immobilized on sensor): able to bind
binding of rh-α5β1 complexed with antibody to A-15B08 on the sensor (rh-α5β1; antibody preincubated with rh-α5β1, A-15B08 immobilized on sensor): not able to bind
binding of rh-α5β1 complexed with antibody to C-14D12 on the sensor (rh-α5β1; antibody preincubated with rh-α5β1, C-14D12 immobilized on sensor): not able to bind
Response (nm) (rh-α5β1; immobilized mAb A2-7A05): 0.07 nm
% Response (rh-α5β1; immobilized mAb A2-7A05): 198.65%
Response (nm) (rh-α5β1; immobilized mAb A-15B08): 0.10 nm
% Response (rh-α5β1; immobilized mAb A-15B08): 50.05%
Response (nm) (rh-α5β1; immobilized mAb C-14D12): 0.12 nm
% Response (rh-α5β1; immobilized mAb C-14D12): 53.28%
epitope group (rh-α5β1; two epitope groups among 6 antibodies): second group

B5: A2-7A05 IgG4 Chimera (antibody, V domains shown)
VH: QVQLQQPGAELVKPGASVKLSCKASGYTFTIYWINWVKQRPGQGLEWIGKIYPGSISTDYNEKFKSKATLTVDTSSSTAYMQLSSLTSDDSAVYYCAITGTGGLAYWGQGTLVTVSA
VL: ENVLTQSPAIMSASLGEKVTMTCRASSSVNYMYWYQQKSDASPKLWIYFTSSLAPGVPGRFSGSGSGNSYSLTISTMEGEDAATYYCQQFTTSPFTFGSGTKLEIK
% Inhibition [1]: 25%
Cell Counts (Curve Bottom) [1]: 28800 cells
Cell Counts (Curve Top) [1]: 38200 cells
IC50 (U87MG cell line): 0.27 µg/mL

Continued, values first:

% Inhibition [1]: 82%
Cell Counts (Curve Bottom) [1]: 6320 cells
Cell Counts (Curve Top) [1]: 35400 cells
IC50 (U87MG cell line): 0.15 µg/mL
B1: A-15B08-T62A IgG4 Chimera (antibody, V domains shown)
VH: QVQLKESGPGLVAPSQSLSITCTISGFSLTSYGVHWVRQPPGKGLEWLVVIWSDGSTTYNSALKSRLSISKDNSKSQVFFKMNSLQTDDTAMYYCARHYDYDGDWFAYWGQGTLVTVSA
VL: B3 VL with L21M, S28R, T30S, S32N, F33S, H93L

IC50 (U87MG cell line): 0.12 µg/mL
B2: A-15B08 IgG4 Chimera (antibody, V domains shown)
VH: B1 VH with A62T
VL: B3 VL with L21M, S28R, T30S, S32N, F33S, H93L
